{"source": "patent US6465220B1", "about": "“Glycosylation using GalNac-T4 transferase” (GlycoZym ApS, priority 1998, dated 2002)", "substrate": "C[C@H](NC(=O)[C@H](C)NC(=O)[C@@H](NC(=O)[C@@H](NC(=O)[C@H](CCC(=O)O)NC(=O)[C@@H]1CCCN1C(=O)[C@@H]1CCCN1C(=O)[C@H](C)NC(=O)[C@H](CO)NC(=O)[C@H](CO)NC(=O)[C@H](CO)NC(=O)[C@@H]1CCCN1C(=O)[C@@H]1CCCN1C(=O)[C@H](C)NC(=O)[C@@H]1CCCN1C(=O)[C@@H](NC(=O)[C@@H](NC(=O)[C@H](C)NC(=O)[C@H](CO)NC(=O)[C@@H]1CCCN1C(=O)[C@@H](NC(=O)[C@@H]1CCCN1C(=O)[C@@H]1CCCN1C(=O)[C@@H](N)CS)[C@@H](C)O)[C@@H](C)O)[C@@H](C)O)[C@@H](C)O)[C@@H](C)O)C(=O)O", "test": "GalNAc-transferase assay with purified recombinant GalNAc-T1", "format": "biochemical, human", "conditions": "other: acceptor substrate; pH 7.5", "experimental": "The following examples are provided to illustrate certain preferred embodiments of the invention, and should be considered as illustration and not as limitation. In the examples, GalNAc-transferase assays were performed in 50 μl total reaction mixtures containing 25 mM cacodylate (pH 7.5), 10 mM MnCl2, 0.1-0.25% Triton X-100, 150-200 μM UDP-[^14C]-GalNAc (4,000 cpm/nmole) (Amersham) and 0.06-1 mM acceptor peptides. Peptides were either synthesized or obtained from Carlbiotech (Copenhagen), or Neosystems (Strasbourg), and quality was ascertained by amino acid analysis and mass spectrometry. Peptides Muc-1a, Muc-1b, and TAP24, were derived from the tandem repeat of human MUC1, Gendler et al., J. Biol. Chem. 265:15286 (1990), and Muc2, Muc5AC, and Muc7 from the tandem repeats of MUC2, MUC5AC, and MUC7, respectively. Gum et al., J. Biol. Chem. 264:6480 (1989); Porchet et al., Biochem. Soc. Trans. 23:800 (1995); Bobek et al., J. Biol. Chem. 268:20563 (1993). GalNAc4TAP24 was produced by in vitro glycosylation using GalNAc-T2 as described in Wandall et al., J. Biol. Chem. 272:23503 (1997). Products were quantified by scintillation counting after chromatography on Dowex-1, octadecyl silica cartridges (Bakerbond), or HPLC (PC3.2/3 or mRPC C2/C18 SC2.1/10 Pharmacia, Smart System). Products produced by in vitro glycosylation were in most cases also confirmed by mass spectrometry. […]"}
{"protein": "GalNAc-T1 (Homo sapiens) (protein, Control constructs pAcGP67-GalNAc-T1-sol, pAcGP67-GalNAc-T2-sol, pAcGP67-GalNAc-T3-sol, and pAcGP67-O^2-sol were prepared as previously described; made in house; host or cells: insect cells (baculovirus, pAcGP67)) GLPAGDVLEPVQKPHEGPGEMGKPVVIPKEDQEKMKEMFKINQFNLMASEMIALNRSLPDVRLEGCKTKVYPDNLPTTSVVIVFHNEAWSTLLRTVHSVINRSPRHMIEEIVLVDDASERDFLKRPLESYVKKLKVPVHVIRMEQRSGLIRARLKGAAVSKGQVITFLDAHCECTVGWLEPLLARIKHDRRTVVCPIIDVISDDTFEYMAGSDMTYGGFNWKLNFRWYPVPQREMDRRKGDRTLPVRTPTMAGGLFSIDRDYFQEIGTYDAGMDIWGGENLEISFRIWQCGGTLEIVTCSHVGHVFRKATPYTFPGGTGQIINKNNRRLAEVWMDEFKNFFYIISPGVTKVDYGDISSRVGLRHKLQCKPFSWYLENIYPDSQIPRHYFSLGEIRNVETNQCLDNMARKENEKVGIFNCHGMGGNQVFSYTANKEIRTDDLCLDVSKLNGPVTMLKCHHLKGNQLWEYDPVKLTLQHVNSNQCLDKATEEDSQVPSIRDCNGSRSQQWLLRNVTLPEIF", "values": [{"measurement": "Km", "value": 40, "unit": "µM"}, {"measurement": "Vmax", "value": 0.76, "unit": "nmol/min/µg"}]}
